Assay results published in patent US20220047729A1.

Target: recombinant hPD-L1 hIgG1 Fc-fusion protein (R&D Systems) (human) (UniProt Q9NZQ7)
Test: flow cytometry, control HEK 293 cells, one dose of hPD-L1 Fc fusion

Chain of UniProt Q9NZQ7 (Q9NZQ7 19-239 limits assumed): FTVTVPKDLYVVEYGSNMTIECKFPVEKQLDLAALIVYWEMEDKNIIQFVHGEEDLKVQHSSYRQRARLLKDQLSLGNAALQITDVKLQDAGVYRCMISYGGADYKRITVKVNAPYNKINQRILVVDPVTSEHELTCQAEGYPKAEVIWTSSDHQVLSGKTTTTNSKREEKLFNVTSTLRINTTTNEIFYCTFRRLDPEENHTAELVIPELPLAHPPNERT

For Control (row of Table 2), the average binding normalized to wild type (AVE-hPD-L1) (relative to wild type) was 0.0144.

Target: recombinant hPD-L2 hIgG1 Fc-fusion protein (R&D Systems) (human) (UniProt Q9BQ51)
Test: flow cytometry, HEK 293 cells displaying the PD-1 construct, one dose of hPD-L2 Fc fusion, percent of PD-1-positive cells bound

Chain of UniProt Q9BQ51 (Q9BQ51 20-219 limits assumed): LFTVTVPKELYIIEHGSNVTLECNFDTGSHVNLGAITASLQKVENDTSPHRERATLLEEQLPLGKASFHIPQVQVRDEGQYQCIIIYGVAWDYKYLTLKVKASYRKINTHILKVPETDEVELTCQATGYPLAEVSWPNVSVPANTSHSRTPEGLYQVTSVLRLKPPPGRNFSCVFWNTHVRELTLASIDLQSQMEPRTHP

First: human PD-1 mutant D77E (hPD-1 Type I mCherry, on HEK 293 cells) (from UniProt Q15116 25-168) (receptor)
Second: human PD-1 mutant E84Y (hPD-1 Type I mCherry, on HEK 293 cells) (from UniProt Q15116 25-168) (receptor)
The average binding normalized to wild type (AVE-hPD-L2) (relative to wild type) of the first is higher: 1.13 for the first, 0.999 for the second.

Compared with “human PD-1 mutant E136N (hPD-1 Type I mCherry, on HEK 293 cells) (from UniProt Q15116 25-168) (receptor)”, “human PD-1 mutant E136Q (hPD-1 Type I mCherry, on HEK 293 cells) (from UniProt Q15116 25-168) (receptor)” is higher in average binding normalized to wild type (AVE-hPD-L2) (relative to wild type): 0.82 for the first, 0.967 for the second.

Going from “human PD-1 mutant G124M (hPD-1 Type I mCherry, on HEK 293 cells) (from UniProt Q15116 25-168) (receptor)” to “human PD-1 mutant G124V (hPD-1 Type I mCherry, on HEK 293 cells) (from UniProt Q15116 25-168) (receptor)”, the average binding normalized to wild type (AVE-hPD-L2) (relative to wild type) rises from 0.705 to 1.16.

Compared with “human PD-1 mutant G124Y (hPD-1 Type I mCherry, on HEK 293 cells) (from UniProt Q15116 25-168) (receptor)”, “human PD-1 mutant I126V (hPD-1 Type I mCherry, on HEK 293 cells) (from UniProt Q15116 25-168) (receptor)” is higher in average binding normalized to wild type (AVE-hPD-L2) (relative to wild type): 0.557 for the first, 0.711 for the second.

Going from “human PD-1 mutant I134D (hPD-1 Type I mCherry, on HEK 293 cells) (from UniProt Q15116 25-168) (receptor)” to “human PD-1 mutant I134F (hPD-1 Type I mCherry, on HEK 293 cells) (from UniProt Q15116 25-168) (receptor)”, the average binding normalized to wild type (AVE-hPD-L2) (relative to wild type) rises from 0.0105 to 1.11.

Compared with “human PD-1 mutant I134N (hPD-1 Type I mCherry, on HEK 293 cells) (from UniProt Q15116 25-168) (receptor)”, “human PD-1 mutant I134Q (hPD-1 Type I mCherry, on HEK 293 cells) (from UniProt Q15116 25-168) (receptor)” is lower in average binding normalized to wild type (AVE-hPD-L2) (relative to wild type): 0.0534 for the first, 0.0252 for the second.

First: human PD-1 mutant I134T (hPD-1 Type I mCherry, on HEK 293 cells) (from UniProt Q15116 25-168) (receptor)
Second: human PD-1 mutant K78R (hPD-1 Type I mCherry, on HEK 293 cells) (from UniProt Q15116 25-168) (receptor)
The average binding normalized to wild type (AVE-hPD-L2) (relative to wild type) of the first is higher: 0.307 for the first, 0.125 for the second.

First: human PD-1 mutant K131H (hPD-1 Type I mCherry, on HEK 293 cells) (from UniProt Q15116 25-168) (receptor)
Second: human PD-1 mutant L128V (hPD-1 Type I mCherry, on HEK 293 cells) (from UniProt Q15116 25-168) (receptor)
The average binding normalized to wild type (AVE-hPD-L2) (relative to wild type) of the first is higher: 1.58 for the first, 1.03 for the second.

Going from “human PD-1 mutant L128W (hPD-1 Type I mCherry, on HEK 293 cells) (from UniProt Q15116 25-168) (receptor)” to “human PD-1 mutant N66E (hPD-1 Type I mCherry, on HEK 293 cells) (from UniProt Q15116 25-168) (receptor)”, the average binding normalized to wild type (AVE-hPD-L2) (relative to wild type) falls from 1.03 to 0.00438.

Going from “human PD-1 mutant N66Q (hPD-1 Type I mCherry, on HEK 293 cells) (from UniProt Q15116 25-168) (receptor)” to “human PD-1 mutant Q75N (hPD-1 Type I mCherry, on HEK 293 cells) (from UniProt Q15116 25-168) (receptor)”, the average binding normalized to wild type (AVE-hPD-L2) (relative to wild type) rises from 0.0105 to 1.13.

Compared with “human PD-1 mutant S73K (hPD-1 Type I mCherry, on HEK 293 cells) (from UniProt Q15116 25-168) (receptor)”, “human PD-1 mutant S73R (hPD-1 Type I mCherry, on HEK 293 cells) (from UniProt Q15116 25-168) (receptor)” is higher in average binding normalized to wild type (AVE-hPD-L2) (relative to wild type): 1 for the first, 1.11 for the second.

First: human PD-1 mutant T76D (hPD-1 Type I mCherry, on HEK 293 cells) (from UniProt Q15116 25-168) (receptor)
Second: human PD-1 mutant T76E (hPD-1 Type I mCherry, on HEK 293 cells) (from UniProt Q15116 25-168) (receptor)
The average binding normalized to wild type (AVE-hPD-L2) (relative to wild type) of the first is lower: 0.205 for the first, 0.642 for the second.

Going from “human PD-1 mutant T76N (hPD-1 Type I mCherry, on HEK 293 cells) (from UniProt Q15116 25-168) (receptor)” to “human PD-1 mutant T76Q (hPD-1 Type I mCherry, on HEK 293 cells) (from UniProt Q15116 25-168) (receptor)”, the average binding normalized to wild type (AVE-hPD-L2) (relative to wild type) falls from 0.998 to 0.98.

Compared with “human PD-1 mutant T76S (hPD-1 Type I mCherry, on HEK 293 cells) (from UniProt Q15116 25-168) (receptor)”, “human PD-1 mutant T76Y (hPD-1 Type I mCherry, on HEK 293 cells) (from UniProt Q15116 25-168) (receptor)” is higher in average binding normalized to wild type (AVE-hPD-L2) (relative to wild type): 0.954 for the first, 1.11 for the second.

First: human PD-1 mutant Y68K (hPD-1 Type I mCherry, on HEK 293 cells) (from UniProt Q15116 25-168) (receptor)
Second: human PD-1 mutant Y68N (hPD-1 Type I mCherry, on HEK 293 cells) (from UniProt Q15116 25-168) (receptor)
The average binding normalized to wild type (AVE-hPD-L2) (relative to wild type) of the first is lower: 0.0223 for the first, 0.108 for the second.

Going from “human PD-1 mutant Y68Q (hPD-1 Type I mCherry, on HEK 293 cells) (from UniProt Q15116 25-168) (receptor)” to “human PD-1 mutant Y68R (hPD-1 Type I mCherry, on HEK 293 cells) (from UniProt Q15116 25-168) (receptor)”, the average binding normalized to wild type (AVE-hPD-L2) (relative to wild type) falls from 0.202 to 0.0334.

Target: recombinant hPD-L2 hIgG1 Fc-fusion protein (R&D Systems) (human) (UniProt Q9BQ51)
Test: flow cytometry, control HEK 293 cells, one dose of hPD-L2 Fc fusion

With Control (row of Table 2) the average binding normalized to wild type (AVE-hPD-L2) (relative to wild type) was 0.00648.
